Measurements as given in the supplement of paper PMC10724198.
± gives the standard deviation of the averaged measurements.

Tested on: Saccharomyces cerevisiae
Experiment: protein stability index of tFT-peptide fusion (C-terminal peptide) (PSI (0-1 scale)); higher = more stable (slower turnover)
Settings: temperature: 30 C
Method: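 MPS profiling in S. cerevisiae of the yeast C-terminome library: the last 12 aa of each annotated ORF are fused to the C-terminus of a sfGFP-mCherry timer, after a GGGS linker. Cells are FACS-sorted into 8 mCherry/sfGFP bins and deep-sequenced. PSI runs from 0 (unstable) to 1 (stable); wild type and das1Δ backgrounds, two technical replicates each.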

[1] = genetic background: das1 deletion

Sequence	protein stability index [1]	protein stability index (genetic background: wild type)
ESKDDDDDDDWE [DOS2 C-terminal 12 aa]	0.709 ± 0.038	0.648 ± 0.0095
ILILFTSINQRG [YOR366W C-terminal 12 aa]	0.589 ± 0.037	0.605 ± 0.039
LKSVKHSIRVYT [YPR012W C-terminal 12 aa]	0.627 ± 0.015	0.604 ± 0.028
LIVSFFYKRNAL [IQG1 C-terminal 12 aa]	0.667 ± 0.018	0.584 ± 0.015
VGNYFMAIQRLN [COQ3 C-terminal 12 aa]	0.731 ± 0.025	0.16 ± 0.017
GTKVDDDKKNKS [SPP2 C-terminal 12 aa]	0.7041 ± 0.0011	0.663 ± 0.03
GKYFLKEEQDEI [YUR1 C-terminal 12 aa]	0.692 ± 0.025	0.7058 ± 0.0067
LTARKVNALRHR [KNH1 C-terminal 12 aa]	0.694 ± 0.028	0.694 ± 0.048
ESSSPSQLQHEA [PHO84 C-terminal 12 aa]	0.6938 ± 0.006	0.682 ± 0.024
KYNNYFKIPPKY [BI3 C-terminal 12 aa]	0.688 ± 0.022	0.659 ± 0.018
FKELLGYTLVSA [VSB1 C-terminal 12 aa]	0.356 ± 0.03	0.391 ± 0.0093
SPGEYEIGDMEN [YDR061W C-terminal 12 aa]	0.675 ± 0.016	0.681 ± 0.048
YAGHRFHDGNKL [ERR1 C-terminal 12 aa]	0.726 ± 0.009	0.737 ± 0.043
GSPNSLLLNIGR [PHB1 C-terminal 12 aa]	0.698 ± 0.015	0.719 ± 0.016
YKNNWLILQQQD [KSP1 C-terminal 12 aa]	0.694 ± 0.066	0.703 ± 0.082
RGSCDNWKKRQN [YBL044W C-terminal 12 aa]	0.726 ± 0.021	0.482 ± 0.0072
IERLFKEEEYYS [TCD1 C-terminal 12 aa]	0.70198 ± 0.00056	0.703 ± 0.011
GYWEDVFVHLAL [HMLALPHA1 C-terminal 12 aa]	0.7685 ± 0.0061	0.757 ± 0.012
EDLDADGDHKLV [TUB4 C-terminal 12 aa]	0.6839 ± 0.0032	0.672 ± 0.0083
DSVIVVLKTPVE [SMD2 C-terminal 12 aa]	0.67383 ± 0.00026	0.658 ± 0.041
ALGEHYNSLHDS [OTU2 C-terminal 12 aa]	0.7 ± 0.016	0.653 ± 0.0071

Sequence	protein stability index [1]	protein stability index (genetic background: wild type)
KKNRSGLRHSES [SQS1 C-terminal 12 aa]	0.683 ± 0.011	0.6606 ± 0.0038
RPFEIASFRLYF [AMS1 C-terminal 12 aa]	0.703 ± 0.026	0.683 ± 0.016
DVHSKIEKQLGI [UMP1 C-terminal 12 aa]	0.7202 ± 0.0061	0.697 ± 0.017
KCLYVQVITKSN [ECM8 C-terminal 12 aa]	0.5487 ± 0.0052	0.256 ± 0.019
STMQERFAESTD [VMA1 C-terminal 12 aa]	0.682 ± 0.011	0.706 ± 0.032
RDHDLKDCGDIF [OSH2 C-terminal 12 aa]	0.7104 ± 0.0011	0.698 ± 0.039
TVVDARIDGRGK [PHB2 C-terminal 12 aa]	0.6724 ± 0.0014	0.708 ± 0.045
ILMNEFAFNPKV [LEU3 C-terminal 12 aa]	0.728 ± 0.027	0.708 ± 0.044
KLKFLQNTYNND [CCE1 C-terminal 12 aa]	0.674 ± 0.015	0.635 ± 0.0079
LTLNWGVEIVKK [RDI1 C-terminal 12 aa]	0.73 ± 0.03	0.725 ± 0.017
ELASSILKELKL [KIN1 C-terminal 12 aa]	0.707 ± 0.022	0.703 ± 0.054
SYRLGKNAAEGK [CAP1 C-terminal 12 aa]	0.685 ± 0.017	0.663 ± 0.025
AVFYIFETLSAL [ORT1 C-terminal 12 aa]	0.653 ± 0.015	0.654 ± 0.0084
VKDLYKRLTIQA [GPI1 C-terminal 12 aa]	0.518 ± 0.018	0.0975 ± 0.0091
IAVNYCMFGRSY [YHR020W C-terminal 12 aa]	0.685 ± 0.022	0.73 ± 0.061
LAKLINKSCVFK [YKL069W C-terminal 12 aa]	0.7 ± 0.023	0.642 ± 0.029
PIKEVLLENWDQ [PUS5 C-terminal 12 aa]	0.715 ± 0.017	0.683 ± 0.024
IRCVFMFRTNAK [YLR296W C-terminal 12 aa]	0.578 ± 0.03	0.595 ± 0.018
LICQTESNPKIV [VPS8 C-terminal 12 aa]	0.708 ± 0.0091	0.694 ± 0.036
EDLDSDLFSEVE [SSF1 C-terminal 12 aa]	0.682 ± 0.02	0.732 ± 0.027
KMPLVPTHYYKQ [GCV1 C-terminal 12 aa]	0.706 ± 0.0089	0.6559 ± 0.00066

Sequence	protein stability index [1]	protein stability index (genetic background: wild type)
EFLQIMKARISK [SEC24 C-terminal 12 aa]	0.686 ± 0.011	0.716 ± 0.048
QGMLQSFLDREL [YOL057W C-terminal 12 aa]	0.721 ± 0.023	0.666 ± 0.042
QHSRGSPNNSNN [YKU80 C-terminal 12 aa]	0.701 ± 0.0071	0.708 ± 0.039
ILAENEIEVSRG [FET5 C-terminal 12 aa]	0.7042 ± 0.00013	0.705 ± 0.0081
LQYKKVGKWRED [URB2 C-terminal 12 aa]	0.724 ± 0.017	0.736 ± 0.0096
KINYDAIDGLFR [BRF1 C-terminal 12 aa]	0.71 ± 0.013	0.681 ± 0.014
FFMSDMNLSKEG [ATG13 C-terminal 12 aa]	0.752 ± 0.016	0.654 ± 0.048
SPELHTYETIYD [ROY1 C-terminal 12 aa]	0.752 ± 0.0093	0.7694 ± 0.0053
LKQTVESLIKEL [VPS51 C-terminal 12 aa]	0.66 ± 0.0088	0.711 ± 0.072
TNEWCLFTPDSP [MLH2 C-terminal 12 aa]	0.744 ± 0.018	0.7355 ± 0.005
NKKPKNKKKGRK [SRP72 C-terminal 12 aa]	0.6842 ± 0.005	0.646 ± 0.0076
QTINTKPLYIKN [YGR290W C-terminal 12 aa]	0.686 ± 0.02	0.665 ± 0.075
DLEMEVIAVEKN [MMF1 C-terminal 12 aa]	0.681 ± 0.0085	0.674 ± 0.034
GATDTSCYKERG [MRPL27 C-terminal 12 aa]	0.695 ± 0.026	0.702 ± 0.085
KTRWQRVWDVLS [ALP1 C-terminal 12 aa]	0.7259 ± 0.0053	0.207 ± 0.01
SKGAQKRKNAKK [SHR3 C-terminal 12 aa]	0.682 ± 0.009	0.66 ± 0.022
GFRLRFWKSLGF [CYT2 C-terminal 12 aa]	0.706 ± 0.029	0.716 ± 0.023
ACELLFENNIDM [PHO81 C-terminal 12 aa]	0.695 ± 0.015	0.7517 ± 0.0037
PKETLHRSDHQG [YPR039W C-terminal 12 aa]	0.6938 ± 0.0051	0.689 ± 0.076
